Assay results from the RNAGym collection of RNA variant scans (doi:10.7554/elife.80360).

B1: HDV Ribozyme (parent)
chain: GGCCGGCAUGGUCCCAGCCUCCUCGCUGGCGCCGGCUGGGCAACAUUCCGAGGGGACCGUCCCCUCGGUAAUGGCGAAUGGGACCCA

Variants of: B1
Assay: self-cleavage, relative activity (ratio to wild type); higher = more cleavage; co-transcriptional
C7G C48G showed a self-cleavage of 0. C7G C61A gave a self-cleavage of 0.486. With C7G C61G the self-cleavage was 0.287. In the case of C7G C63U, the self-cleavage is reported as 0.674. C7G C85A gave a self-cleavage of 0.302. C7G C86U gave a self-cleavage of 0.383. Work on C7G G10U yielded a self-cleavage of 0.0462. C7G G11A gave a self-cleavage of 0.0346. C7G G25A gave a self-cleavage of 0.104. Work on C7G G31A yielded a self-cleavage of 0.441. For C7G G31C, the self-cleavage was 0.95. Work on C7G G34C yielded a self-cleavage of 0.213. C7G G38A gave a self-cleavage of 0.101. Work on C7G G38U yielded a self-cleavage of 0.0692. C7G G39A gave a self-cleavage of 0.147. For C7G G39C, the self-cleavage was 0. For C7G G40A, the self-cleavage was 0.0536. C7G G40C showed a self-cleavage of 0. C7G G40U showed a self-cleavage of 0.268. In the case of C7G G52U, the self-cleavage is reported as 0.196. In the case of C7G G59U, the self-cleavage is reported as 0.237. For C7G G68A, the self-cleavage was 0.0594. With C7G G73A the self-cleavage was 0.0639. With C7G G76C the self-cleavage was 0.151. For C7G G80A, the self-cleavage was 0.145. In the case of C7G G81U, the self-cleavage is reported as 0.0594. With C7G G82C the self-cleavage was 0. Work on C7G U9C yielded a self-cleavage of 0. In the case of C7G U12A, the self-cleavage is reported as 0. C7G U20A showed a self-cleavage of 0. C7G U23C showed a self-cleavage of 0. Variant C7G U27C has a self-cleavage of 0.151. C7G U37C showed a self-cleavage of 0.399. C7G U37G gave a self-cleavage of 0. C7G U46C gave a self-cleavage of 0. C7G U47C gave a self-cleavage of 0.293. With C7G U60A the self-cleavage was 0.317. C7G U65C gave a self-cleavage of 0.0831. C7G U65G showed a self-cleavage of 0.199. In the case of C7G U69A, the self-cleavage is reported as 0.237. In the case of C7G U79A, the self-cleavage is reported as 0.123. C7U A16C gave a self-cleavage of 0.196. Variant C7U A42G has a self-cleavage of 0.415. Variant C7U A45G has a self-cleavage of 0.72. For C7U A51U, the self-cleavage was 1.13. In the case of C7U A56C, the self-cleavage is reported as 0.806. In the case of C7U A56G, the self-cleavage is reported as 0.997. Work on C7U A70C yielded a self-cleavage of 0.923. C7U A70G showed a self-cleavage of 0.831. Variant C7U A77C has a self-cleavage of 0.196. With C7U A77U the self-cleavage was 0.151. C7U A83U showed a self-cleavage of 0.0852. Work on C7U A87C yielded a self-cleavage of 0.968. Variant C7U A87U has a self-cleavage of 0.938. Work on C7U C13A yielded a self-cleavage of 0.124. C7U C14U showed a self-cleavage of 0.785. In the case of C7U C15G, the self-cleavage is reported as 0.536. With C7U C18G the self-cleavage was 0.0639. Variant C7U C19A has a self-cleavage of 0.157. With C7U C24U the self-cleavage was 0.261. In the case of C7U C30U, the self-cleavage is reported as 0.483. For C7U C33G, the self-cleavage was 0.0536. C7U C33U gave a self-cleavage of 0.672. With C7U C36A the self-cleavage was 0.0405. C7U C36G showed a self-cleavage of 0.104. C7U C41U gave a self-cleavage of 0.802. C7U C48G gave a self-cleavage of 0.831. C7U C49U gave a self-cleavage of 0.727. C7U C58U gave a self-cleavage of 1.19. C7U C61U gave a self-cleavage of 0.831. C7U C75A showed a self-cleavage of 0.177. Work on C7U C75G yielded a self-cleavage of 0.0852. Variant C7U C85A has a self-cleavage of 0.665. With C7U G11A the self-cleavage was 0.423. With C7U G11U the self-cleavage was 0.16. In the case of C7U G17C, the self-cleavage is reported as 0. Variant C7U G17U has a self-cleavage of 0.259. For C7U G25C, the self-cleavage was 0.0378. In the case of C7U G31U, the self-cleavage is reported as 0.575. With C7U G34C the self-cleavage was 0.193. C7U G35C showed a self-cleavage of 0. For C7U G39C, the self-cleavage was 0.0923. For C7U G40U, the self-cleavage was 0.821. In the case of C7U G50U, the self-cleavage is reported as 0.864. For C7U G53A, the self-cleavage was 0.964. In the case of C7U G53U, the self-cleavage is reported as 1.09. Variant C7U G55A has a self-cleavage of 0.724. C7U G55C gave a self-cleavage of 0.736. With C7U G59U the self-cleavage was 0.812. C7U G67A gave a self-cleavage of 0.904. In the case of C7U G67U, the self-cleavage is reported as 0.684. With C7U G74U the self-cleavage was 0.202. C7U G76A gave a self-cleavage of 1.09. With C7U G76U the self-cleavage was 0.755. C7U G81C showed a self-cleavage of 0.383. With C7U U12G the self-cleavage was 1.02. In the case of C7U U23G, the self-cleavage is reported as 0.332. With C7U U27G the self-cleavage was 0.431. C7U U47C showed a self-cleavage of 0.482. Variant C7U U60C has a self-cleavage of 1.26. Work on C7U U60G yielded a self-cleavage of 0.831. For C7U U65C, the self-cleavage was 0.914. C7U U69A showed a self-cleavage of 0.718. For C7U U79A, the self-cleavage was 0.675. A8C A16C gave a self-cleavage of 1.07. Work on A8C A42C yielded a self-cleavage of 0.201. A8C A42U showed a self-cleavage of 0.133. For A8C A43U, the self-cleavage was 0.289. With A8C A56U the self-cleavage was 1. Variant A8C A71G has a self-cleavage of 0.772. A8C A78C gave a self-cleavage of 0.302. With A8C A83C the self-cleavage was 0.317. For A8C A83U, the self-cleavage was 0.237. With A8C A87G the self-cleavage was 0.674. Work on A8C A87U yielded a self-cleavage of 0.847. Variant A8C C13G has a self-cleavage of 0.0692. For A8C C18A, the self-cleavage was 0.0415. For A8C C19A, the self-cleavage was 0.0449. With A8C C21U the self-cleavage was 0.0594. For A8C C22A, the self-cleavage was 0.249. Work on A8C C26U yielded a self-cleavage of 1.01. A8C C30A showed a self-cleavage of 0.0462. In the case of A8C C30U, the self-cleavage is reported as 0.415. In the case of A8C C32G, the self-cleavage is reported as 0.185. A8C C32U gave a self-cleavage of 0.538. For A8C C36U, the self-cleavage was 0.712. A8C C44U gave a self-cleavage of 0.199. Work on A8C C48G yielded a self-cleavage of 0.175. Variant A8C C48U has a self-cleavage of 0.776. A8C C57G gave a self-cleavage of 0.87. Variant A8C C61A has a self-cleavage of 0.931. Variant A8C C62U has a self-cleavage of 0.918. Work on A8C C85U yielded a self-cleavage of 0.886. In the case of A8C G17U, the self-cleavage is reported as 0.287. Work on A8C G28C yielded a self-cleavage of 0. Work on A8C G39A yielded a self-cleavage of 0.151. A8C G39C gave a self-cleavage of 0.0615. In the case of A8C G39U, the self-cleavage is reported as 0.381. Variant A8C G50A has a self-cleavage of 0.96. Work on A8C G54A yielded a self-cleavage of 0.759. With A8C G54U the self-cleavage was 0.618. A8C G55A showed a self-cleavage of 0.636. Work on A8C G68C yielded a self-cleavage of 0.604. For A8C G73U, the self-cleavage was 0.264. Variant A8C G80C has a self-cleavage of 0.133. In the case of A8C G81A, the self-cleavage is reported as 0.151. For A8C G82C, the self-cleavage was 0.0923. For A8C U12A, the self-cleavage was 0. A8C U20G gave a self-cleavage of 0.175. In the case of A8C U23C, the self-cleavage is reported as 0.506. For A8C U37A, the self-cleavage was 0.128. Work on A8C U37C yielded a self-cleavage of 0.997. For A8C U47C, the self-cleavage was 0.665. A8C U60G gave a self-cleavage of 0.554. A8C U69C gave a self-cleavage of 0.831. In the case of A8C U72A, the self-cleavage is reported as 0.375. Work on A8C U72G yielded a self-cleavage of 0.332. For A8C U79A, the self-cleavage was 0.506. For A8G A16C, the self-cleavage was 0.639. With A8G A16U the self-cleavage was 0.895. A8G A45G gave a self-cleavage of 0.9. For A8G A56C, the self-cleavage was 0.867. Variant A8G A83U has a self-cleavage of 0.246. With A8G A87C the self-cleavage was 1.18. In the case of A8G A87G, the self-cleavage is reported as 0.942. A8G C13G showed a self-cleavage of 0.0923. A8G C13U showed a self-cleavage of 0.
